{"source": "paper PMC10767740", "key": {"[1]": {"test_system": "TDP-43 monomer (TDP-M)", "sequence (chain, as listed by the source)": "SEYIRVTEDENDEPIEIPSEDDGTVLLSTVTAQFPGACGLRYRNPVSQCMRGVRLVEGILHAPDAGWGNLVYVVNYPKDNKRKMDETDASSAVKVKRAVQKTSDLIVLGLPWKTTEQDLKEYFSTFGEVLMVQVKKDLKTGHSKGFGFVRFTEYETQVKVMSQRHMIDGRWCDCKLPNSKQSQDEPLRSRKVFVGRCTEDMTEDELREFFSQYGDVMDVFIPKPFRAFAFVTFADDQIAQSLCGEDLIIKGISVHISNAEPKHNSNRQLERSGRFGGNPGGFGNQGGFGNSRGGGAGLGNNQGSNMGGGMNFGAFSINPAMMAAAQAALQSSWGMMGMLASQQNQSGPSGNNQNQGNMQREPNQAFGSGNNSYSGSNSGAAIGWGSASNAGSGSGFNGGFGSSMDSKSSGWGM", "assay": "SPR", "settings": "protein immobilized on CM5; SPR Biacore 8K, CM5 chip, protein amine-coupled (30 ug/mL in NaAc pH 4.0); TG12 7.8-8000 nM in 1x PBS + 0.02% Tween-20; 120 s association and dissociation; 1:1 …"}, "[2]": {"test_system": "TDP-43 native oligomer (NA-O)", "assay": "SPR", "settings": "protein immobilized on CM5, SPR Biacore 8K, CM5 chip, protein amine-coupled (30 ug/mL in NaAc pH 4.0), TG12 7.8-8000 nM in 1x PBS + 0.02% Tween-20, 120 s association and dissociation, 1:1 …"}}, "note": "pKd: −log10 of the molar value.", "data": [{"substance": "TG12", "values": [{"measurement": "pKd", "setting": "[1]", "result": 6.81}, {"measurement": "pKd", "setting": "[2]", "result": 6.90}]}]}
